Measurements taken from patent US6828121.

Target: humanized anti-CD18 kappa light chain

B1: Prc protease (periplasmic C-terminal processing protein) (protein)
chain: VEDITRADQIPVLKEETQHATVSERVTSRFTRSHYRQFDLDQAFSAKIFDRYLNLLDYSHNVLLASDVEQFAKKKTELGDELRSGKLDVFYDLYNLAQKRRFERYQYALSVLEKPMDFTGNDTYNLDRSKAPWPKNEAELNALWDSKVKFDELSLKLTGKTDKEIRETLTRRYKFAIRRLAQTNSEDVFSLAMTAFAREIDPHTNYLSPRNTEQFNTEMSLSLEGIGAVLQMDDDYTVINSMVAGGPAAKSKAISVGDKIVGVGQTGKPMVDVIGWRLDDVVALIKGPKGSKVRLEILPAGKGTKTRTVTLTRERIRLEDRAVKMSVKTVGKEKVGVLDIPGFYVGLTDDVKVQLQKLEKQNVSSVIIDLRSNGGGALTEAVSLSGLFIPAGPIVQVRDNNGKVREDSDTDGQVFYKGPLVVLVDRFSASASEIFAAAMQDYGRALVVGEPTFGKGTVQQYRSLNRIYDQMLRPEWPALGSVQYTIQKFYRVNGGSTQRKGVTPDIIMPTGNEETETGEKFEDNALPWDSIDAATYVKSGDLTAFEPELLKEHNARIAKDPEFQNIMKDIARFNAMKDKRNIVSLNYAVREKENNEDDATRLARLNERFKREGKPELKKLDDLPKDYQEPDPYLDETVNIALDLAKLEKARPAEQPAPVK
- kappa LC cleavage (LC clips on 1-D/2-D gels and peak 1 of the AME5/RP assay in prc-plus against prc-deletion strains): Here it is shown that Prc is the only protease involved in kappa LC cleavage inside E. coli cells.
